# Numbered stars: 1 amine (or outer) side, 2 acyl side, 3 side chain; on linkers, the order of the positions; unused ones are H or OH. Bridge positions count the residues as written; N and C are the ends. Ends that are not written are not given here. acetyl = acetyl (haloacetyl before ring closure) on the side-chain amine, O=C(C[*:1])[*:2]; COCH2 = acetyl group that carries the bridge
# Molecular target: T1, Recombinant Human FGFR2 alpha (IIIc) Fc Chimera Protein (Homo sapiens, UniProt P21802)
# T1 construct: Fc (chimera); purchased R&D systems 712-FR-050
# Experiment: ELISA binding affinity of enzymatically synthesized peptide to FGFR
# Details: ELISA luminescence signal at 10 nmol/L peptide, SEQ ID NO: 47 at 10 nmol/L standardized to 1; enzyme synthesis product
# Experimental: The binding affinity of the peptide to FGFR was evaluated using an ELISA method.
# The binding affinity of the enzymatically synthesized peptide to FGFR was measured by evaluating the amount of the peptide bound to FGFR by ELISA.
# First, 5 ng of Recombinant Human FGFR2 alpha (IIIc) Fc Chimera Protein (R&D systems, 712-FR-050) was immobilized in each well of a 96-well plate, and blocked with Pierce Protein-Free (PBS) Blocking Buffer (Thermo, 37572), and a peptide diluted with Can Get Signal Immunoreaction Enhancer Solution I (TOYOBO, NKB-101) was then added and reacted at room temperature for 3 hours. After washing with 0.05% Tween 20-containing phosphate buffered saline (PBS), an anti-Myc antibody (Cell Signaling, 14038S) diluted with Can Get Signal Immunoreaction Enhancer Solution II (TOYOBO, NKB-101) was added and reacted at room temperature for 2 hours. After washing with 0.05% Tween 20-containing PBS, SuperSignal ELISA Femto Substrate (Thermo, 37075) was added, and the luminescence amount was measured. The dose-response relationship was calculated from using the difference between the luminescence amount in the well in which FGFR was immobilized and the luminescence amount in the well in which FGFR was not immobilized, and the concentration of the peptide at the time of reaction, and the binding affinity to FGFR was evaluated according to the following evaluation criteria. The evaluation result preferably satisfies the evaluation criteria A, B, or C.
# In a case where a value of a luminescence signal emitted by the cyclic peptide set forth in SEQ ID NO: 47 at a reaction concentration of 10 nmol/L is standardized to 1, evaluation criteria of the luminescence signal value emitted by the cyclic peptide at a reaction concentration of 10 nmol/L is as follows. • A: 0.7 or more • B: 0.5 or more and less than 0.7 • C: 0.1 or more and less than 0.5 • D: less than 0.1.
# T1 sequence (P21802 with tags, fused parts or gaps limits assumed): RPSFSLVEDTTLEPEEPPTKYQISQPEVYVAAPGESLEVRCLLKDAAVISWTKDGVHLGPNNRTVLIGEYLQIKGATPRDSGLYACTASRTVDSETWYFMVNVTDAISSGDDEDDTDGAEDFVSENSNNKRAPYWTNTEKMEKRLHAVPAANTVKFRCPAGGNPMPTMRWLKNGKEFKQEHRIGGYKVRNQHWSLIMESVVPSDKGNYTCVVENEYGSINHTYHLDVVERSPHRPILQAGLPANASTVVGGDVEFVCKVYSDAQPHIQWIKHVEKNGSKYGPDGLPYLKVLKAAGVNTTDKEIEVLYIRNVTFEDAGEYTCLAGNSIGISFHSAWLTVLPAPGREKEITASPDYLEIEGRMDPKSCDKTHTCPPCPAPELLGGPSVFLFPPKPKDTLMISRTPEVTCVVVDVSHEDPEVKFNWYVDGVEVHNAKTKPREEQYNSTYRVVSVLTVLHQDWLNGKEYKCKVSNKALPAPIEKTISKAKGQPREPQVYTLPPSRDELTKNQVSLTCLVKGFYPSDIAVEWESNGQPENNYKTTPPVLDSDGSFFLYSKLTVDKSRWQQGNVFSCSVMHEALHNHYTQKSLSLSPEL
row,Substance,Evaluation result of binding affinity to FGFR
1,40 (DCSGNFFSKEQFHYLELFK(COCH2)K; thioether 2-19 (inferred)) [compound 40],A (0.7 or more)
2,41 (LCGNYITPLQWKYFQTYK(COCH2)W; thioether 2-18 (inferred)) [compound 41],A (0.7 or more)
3,42 (QCYFLSQYILERYKVHK(COCH2)L; thioether 2-17 via acetyl) [compound 42],A (0.7 or more)
4,43 (HCNANFVYQQQYLYLLQYK(COCH2)L; thioether 2-19 via acetyl) [compound 43],B (0.5 or more and less than 0.7)
5,44 (ACEYNYWNQVQFTFLIAFK(COCH2)R; thioether 2-19 via acetyl) [compound 44],B (0.5 or more and less than 0.7)
6,45 (TCPQNFRDELQFTYFTQYKY; Description of Artificial Sequence: Cyclic peptide) [compound 45],A (0.7 or more)
7,46 (SCIQQNYFWQYVFERYRYKQ; Description of Artificial Sequence: Cyclic peptide) [compound 46],B (0.5 or more and less than 0.7)
8,47 (KCPQNFINPVQWRYFQHYKN; not fully specified; Description of Artificial Sequence: Cyclic peptide) [compound 47],A (0.7 or more)
9,48 (GCYWNEVQYYYLQQYKQ; Description of Artificial Sequence: Cyclic peptide) [compound 48],A (0.7 or more)
10,49 (SCQGNWISNTQFRYFIAYK(COCH2)T; thioether 2-19; not fully specified (residue 1); printed as s-(C)-QGNWISNTQFRYFIAY-(K(acetyl))-T) [compound 49],A (0.7 or more)
11,50 (ACGQNFYHPVQFHYFIAYKQ; Description of Artificial Sequence: Cyclic peptide) [compound 50],A (0.7 or more)
12,51 (VCHSNFLSAVQYAYFYQYKH; Description of Artificial Sequence: Cyclic peptide) [compound 51],A (0.7 or more)
13,52 (VCNENNWSRSQYHFFLQYKY; Description of Artificial Sequence: Cyclic peptide) [compound 52],C (0.1 or more and less than 0.5)
14,53 (ACPQNFINPVQWRYFQHYKN; not fully specified; Description of Artificial Sequence: Cyclic peptide) [compound 53],A (0.7 or more)
15,54 (KCAQNFINPVQWRYFQHYKN; Description of Artificial Sequence: Cyclic peptide) [compound 54],A (0.7 or more)
16,55 (KCPANFINPVQWRYFQHYK(COCH2)N; thioether 2-19 (inferred)) [compound 55],A (0.7 or more)
17,56 (KCPQAFINPVQWRYFQHYK(COCH2)N; thioether 2-19 (inferred)) [compound 56],C (0.1 or more and less than 0.5)
18,57 (KCPQNAINPVQWRYFQHYK(COCH2)N; thioether 2-19 (inferred)) [compound 57],B (0.5 or more and less than 0.7)
19,58 (KCPQNFANPVQWRYFQHYK(COCH2)N; thioether 2-19 (inferred)) [compound 58],B (0.5 or more and less than 0.7)
20,59 (KCPQNFIAPVQWRYFQHYK(COCH2)N; thioether 2-19 (inferred)) [compound 59],B (0.5 or more and less than 0.7)
21,60 (KCPQNFINAVQWRYFQHYK(COCH2)N; thioether 2-19 (inferred)) [compound 60],A (0.7 or more)
22,61 (KCPQNFINPAQWRYFQHYK(COCH2)N; thioether 2-19 (inferred)) [compound 61],A (0.7 or more)
23,62 (KCPQNFINPVQARYFQHYK(COCH2)N; thioether 2-19 (inferred)) [compound 62],C (0.1 or more and less than 0.5)
24,63 (KCPQNFINPVQWAYFQHYK(COCH2)N; thioether 2-19 (inferred)) [compound 63],A (0.7 or more)
25,64 (KCPQNFINPVQWRAFQHYK(COCH2)N; thioether 2-19 (inferred)) [compound 64],B (0.5 or more and less than 0.7)

row,Substance,Evaluation result of binding affinity to FGFR
1,65 (KCPQNFINPVQWRYFAHYK(COCH2)N; thioether 2-19 (inferred)) [compound 65],A (0.7 or more)
2,66 (KCPQNFINPVQWRYFQAYK(COCH2)N; thioether 2-19 (inferred)) [compound 66],A (0.7 or more)
3,"67 (KCPQNFINPVQWRYFQHYKA; not fully specified; also: cyclic peptide, ring places not shown) [compound 67]",A (0.7 or more)
4,68 (KCQNFINPVQWRYFQHYK(COCH2)N; thioether 2-18 (inferred)) [compound 68],A (0.7 or more)
5,"69 (KCPQNFINPVQWRYFQHYAKN; not fully specified; also: cyclic peptide, ring places not shown) [compound 69]",C (0.1 or more and less than 0.5)
6,70 (KCAPQNFINPVQWRYFQHYK(COCH2)N; thioether 2-20 (inferred)) [compound 70],B (0.5 or more and less than 0.7)
7,71 (GCPQNFINPVQWRYFQHYK(COCH2)N; thioether 2-19 (inferred)) [compound 71],A (0.7 or more)
8,72 (PCPQNFINPVQWRYFQHYK(COCH2)N; thioether 2-19 (inferred)) [compound 72],A (0.7 or more)
9,73 (LCPQNFINPVQWRYFQHYK(COCH2)N; thioether 2-19 (inferred)) [compound 73],A (0.7 or more)
10,74 (ICPQNFINPVQWRYFQHYK(COCH2)N; thioether 2-19 (inferred)) [compound 74],A (0.7 or more)
11,75 (VCPQNFINPVQWRYFQHYK(COCH2)N; thioether 2-19 (inferred)) [compound 75],A (0.7 or more)
12,76 (FCPQNFINPVQWRYFQHYK(COCH2)N; thioether 2-19 (inferred)) [compound 76],A (0.7 or more)
13,77 (YCPQNFINPVQWRYFQHYK(COCH2)N; thioether 2-19 (inferred)) [compound 77],A (0.7 or more)
14,78 (WCPQNFINPVQWRYFQHYK(COCH2)N; thioether 2-19 (inferred)) [compound 78],A (0.7 or more)
15,79 (NCPQNFINPVQWRYFQHYK(COCH2)N; thioether 2-19 (inferred)) [compound 79],A (0.7 or more)
16,80 (QCPQNFINPVQWRYFQHYK(COCH2)N; thioether 2-19 (inferred)) [compound 80],A (0.7 or more)
17,81 (SCPQNFINPVQWRYFQHYK(COCH2)N; thioether 2-19 (inferred)) [compound 81],A (0.7 or more)
18,82 (TCPQNFINPVQWRYFQHYK(COCH2)N; thioether 2-19 (inferred)) [compound 82],A (0.7 or more)
19,83 (DCPQNFINPVQWRYFQHYK(COCH2)N; thioether 2-19 (inferred)) [compound 83],A (0.7 or more)
20,84 (ECPQNFINPVQWRYFQHYK(COCH2)N; thioether 2-19 (inferred)) [compound 84],A (0.7 or more)
21,85 (RCPQNFINPVQWRYFQHYK(COCH2)N; thioether 2-19 (inferred)) [compound 85],A (0.7 or more)
22,86 (HCPQNFINPVQWRYFQHYK(COCH2)N; thioether 2-19 (inferred)) [compound 86],A (0.7 or more)
23,87 (QCPQNFINPVHWRYFQHYK(COCH2)N; thioether 2-19 (inferred)) [compound 87],A (0.7 or more)
24,88 (QCPQNFINPVQWRYLQHYK(COCH2)N; thioether 2-19 (inferred)) [compound 88],A (0.7 or more)

# From patent US20260008815A1, “CYCLIC PEPTIDE OR SALT THEREOF, AND USES THEREOF” (FUJIFILM Corporation, priority 2023, published 2026)
